Test: soluble fraction after stress (log2 fold change); higher = more stays soluble; pooled small domains, quantitative proteomics
Conditions: stress: 75 degC
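Further: 20 min heating vs room temperature control held 20 min.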

Row | Sequence | soluble fraction (log2)
1 | HMEDGEALARAVASLPGKYREVLFLKYSHGYSVDEIALILSMSKENVKKTIQRARKKLEQLLESE | -1.3
2 | HMEDGEVTVPDLRGLTIKEAGTILEKLGLHLSPVGTGLAVRQDVAPGSKVARDTTITVEFEPPDIQVLR | 0.374
3 | HMEDIKHVVANNIKKYRKEERLTLQQLSYLTGVSKTMLNQIETEKSSPSITILWRISSGLKIPLSKLISSP | -1.58
4 | HMEDIPENIRYKFLLKELKENEHLNILDKENIARKLTEIDLPELEKELLENEILNSTIKDYLGIKLV | 0.494
5 | HMEDKFEYQGELKSLIEPTSFSELVSALNVRDTLQAIIDFAMREEDTSGYEELKVRQNDYIQEYLNSIGNF | -0.761
6 | HMEDKFEYQGERKSLIYPTSFSELTEALGVRNMLQSIIDFATRDEDTSGYEEMKERQNEYIQEYL | -0.0262
7 | HMEDKKQVLYELITDKSYRPLRFKELAVLLMVPKALRGELKQTLDELIKEGKITVDSSSRYRAA | 0.599
8 | HMEDLDKIISAYLDENPQIVSDYGKGNKKAVNSAIGFVMKSTGGKYSSSDIVDAVRSMIVSISV | -0.667
9 | HMEDNYYENKINYLFGYLDEADKEISVNSILDFHLAHRTNPEFVFEPKKNTNPLIWKYLSNSNLLY | 0.398
10 | HMEDPLGDLIGRIAAATGRPVQDIVAEVHRVVTDHFDGNLRVEAAAVILARKYGVAFEDKLSALQRSV | 0.0325
11 | HMEDSAKRHQIMDGARRVFMDLGFDGASMNEIARAAGVSKGTLYVYFTDKNRLFEAIVEQESL | -1.27
12 | HMEDSEYDRLLAEIDEGIRKAIETLEPVELSPQNARVRRIQHQIIEKYQLHSDSVGEEPYRRVRIL | -0.596
13 | HMEDSHIYPVSFNGKMRFKLELPVSMNKKEIEEVVLQHEDAQKWLNGQNPKKVIVVPKRIINIV | 0.0193
14 | HMEDTVNVPIQINGKLRHVIQVQIGTSEEEIQKIALSEEQVKKFTDGHEILKVMVPKGKLVSIVI | -1.04
15 | HMEDVLVTQIIQLKHVDANDMKTLFTPLLSRGSSQLLAYPQSNVLIITDTRSNIKKITEILDIIDKS | -3.02
16 | HMEDVRSLTGPEKAAIILLSLGEEHGQGVWRMFDDEEVKEVSQIMANLGTISASVVEKLLVEFVSQMST | -0.96
17 | HMEDYYKILGVQSNSNPDDIKKAYRKLSLKHHPDRGGDASEFKKINEAYQTLGTPEKRKMYDMQQNN | -0.169
18 | HMEEEPALLRDLLAKTLEFGLIPQLSHHPALADRTQQLASAVRAAGSASALRNAAASLKSLWIDVDQ | -0.0158
19 | HMEEFDLNAYITKINSAATLNALKQAYAEANSAALSVKDKDAQRKIIVEKDKRKAELIQETAG | 0.453
20 | HMEEIALTDILNRFLSSLSLEQRKIFMRRYWYLSPIKEIATEYGMSESKIKMSLFRSRNELKKLLEKEGI | -0.499
21 | HMEEINTAPVFKNIIEIAEYAKTKFTTVEEIPKMIEFIETANSKLDNPHDEESVNELINALSTNIRKNV | 0.347
22 | HMEEITLIAEDEGLRLDTWLTDKLKDYSRSYIQKLMEDELVLVNGKARKANYRIKTGDEIHVSIPEPE | -0.0663
23 | HMEELLVAVKADGSIWADGRPITPDGLASFIDSKPADAVLNLAVDKKAPFAAFVKVVDVAKEKKSGRFVIR | -0.41
24 | HMEELPIIVAQRFLNIFRQLHIFSDERREAFNKMLLELPPEVKSIFQSLPGGTPLQEYMEDLEQKSK | -0.721
25 | HMEELTPLQKYVFDYESDISDEVDMRAIKGLENANDVYDYYANVRGWEGDPDLEDDLDNIYRQVKARFA | 0.0255
26 | HMEEMTIRQKRTMIFFIEATKHILQEDGYDHLTIREIAQRAGYNAATLYHYFRDLDELIIYGSVG | -0.439

Row | Sequence | soluble fraction (log2)
27 | HMEEPEELYRVKILIYNLLVRNGPGILYTRLRRADYPGEYGIYEEKNGYGKISATLSEWISLNTEYVQRLD | -3.72
28 | HMEEVYVPDIRDKSISDAKKILSQMGLKYRIEGEGYDDSTVIKDQTPKPGALLAKDSVVIAYINE | 0.0833
29 | HMEEYLENLTQSKLLHMLDQLSPAYKTVFTLFVLDELSHEEISKMLNISIGTSKSNLFRARKVMRVLMESE | -0.273
30 | HMEFDIDAAIHAALEPQAVMRAWFGHEGREYPEDFGVVFFRGWESFTHQEKVEAVRDAKKVLDRAVR | -1.18
31 | HMEFDSLINYEVKKKETLFSISKKFKIEINDLLSFNTELKNNKLKKNSIIIIPLKKKIVESQNFEKQKIID | -1.49
32 | HMEFENIEQRKQYWSDLYRELKAGQDAYAKELKKGTEGYTQDELDILKEFTDEAKKQMEAAGVEATDEFAS | -0.0427
33 | HMEFLLAIQPFVLLTDHANLTFLREQTDSMMKRIQINISGFEIEFRYVPGLTNILPDKMSRV | 0.146
34 | HMEFQEQLYRLRKQAGLSQEELSHIIGVSRQAVQKWEAGSARPDLDNLIALASHFKLSLDQLVGLT | -1.01
35 | HMEFQSIGGKIRIGREREHLTQAELAQKLSVTRQAVSNWERDKTLPDIYMIREIAEIFGLTLDEFMEGAKK | -1.02
36 | HMEGDAFAFTGDIQKDLLSITAVHPMRREAVDALIAKAGASWAIVEKLLAHGELTEAKHDGHLFYLRKF | -1.19
37 | HMEGIAEILPASVRQKYGLIGLYDALRGLHFPGNMEEIKAARQRLAFEDTLMFSLTLSMMQYS | -0.146
38 | HMEGIAYDINTAPEHIDLKAEDMMATFNIGKTALWRWVKQKILPPPYEYRSQAAHWTIGQIRDWKTA | -0.125
39 | HMEGLDDKTKIILFAGDKKEQEYSLADLKSKLNITENLTESELIKLLEKQGYVLDVNANNEFMFKKD | -0.012
40 | HMEGNFFADIRQELMRELDQEAEWSDVQILEKIDDLVLLRTRRSSLTVNEKEQLRKELFYSVRK | -0.345
41 | HMEGRTVMATTAVNVRSGPGTSYKILGVLYPGHTAQQIGNTRYGWAQVTWKGHTAYIAARYLRDS | -2.71
42 | HMEGSLQEDKVKEYQDRFKEELSNDLNTANSITVLYDLIKDDTLNGTTKRYLIEDFDKILSLDLIKE | 0.167
43 | HMEGSVTVMVNGESVTMTGKQNYIFVDVFDWYSFDLSAGKGRAIATLVNGKEAEFSQPLANGDNIELYWKE | -2.15
44 | HMEGTAAAVALKGLMEQSGVDLREVMAAVESRGYYPKGTPFENYDPAFVSGVLVGAWDQVYKMILDQRPIP | -0.692
45 | HMEGVSPQTVQEHIRRFIAAEDPASPLSDEALREALGNLGINASRRTVAKYRGEMGIPSSAQRKR | -0.0573
46 | HMEGVSSESVKEMLKSIIDGEDPHNPVSDQRITDILNSRGINISRRTVAKYRDELGIASSSRRKRY | 0.298
47 | HMEGYLYLSESQNELILKNLKTPLKYNLYNASGKLIKKGNIKNTLDISELPKGVYIFTSSDNSFSKKFLKT | -1.55
48 | HMEHAETDTRERILVVAERLFRQLGYQKTTVADIAKELRMSPANVYRFFDSKKSIHEGVARTL | -0.896
49 | HMEHETTQLELNAPGQRLDAALALALPDTSRAQIQQWIKQGLVTDQAGTALLQASLKLKSPLNVVLQRPI | -0.215
50 | HMEHIDVSGRAFDVSVSRLKRARRLTMRIDTHKQLVKISAPLHVESSTIRAFLARNQNWLEQQVEKR | -0.839
51 | HMEHLTATERHLVAYLEAHLGQVPSLSITKLSQEANVSTASIVRTMKKLGYDGFTAFKHAIKQQLR | -2.67
52 | HMEHTPHGVALLRTLMDQYGLKAADLANELGSKSNVSNILNGRRALTVSHIKMLAERFNLPADAFI | -1.33

Row | Sequence | soluble fraction (log2)
53 | HMEIALNDKQILLFSNKLVHEPSFASKYSKVGESYDDFAIRISENLTIPDKVQEYLPYLEKVGFNI | -0.622
54 | HMEIDDPWLILGINAGSSIEIAQKAWKDLASQNHPDKLIANGVPKELLGMANEKLAIINGAYDKILKAHKI | -0.295
55 | HMEIETPEIRAIHDLLELLANKAKKPEQEQFVQAHPEVQWAKVEANKNGTFAVGKVKAYLKTLQA | -0.39
56 | HMEIGNVIAKLRVSNGLNQREFAKKLEVSNGAVAMWETNKRQPDLEMIKKISNLFDVPTDYILGAGTFQ | -0.838
57 | HMEIIFVEHKVRPGESVWLIARKYKVKKNHILAVNNLSEKSIIRPKQILKIPTSGYDQYKKSVE | -3.79
58 | HMEIIMIVITKPSITDERIAEIVAVIERNGGVQAHVSKGTDRTVIGIIGKAEPTLAEHLRQMKGVENVIKI | -1.33
59 | HMEIPMRDKLKTYIDYLFAGAPQTAATAETKAEILQNTLDKYDDLIAEGKTPEAAYSLAVSGIGDLGDF | -0.179
60 | HMEIPTEEILKQKLYYSISEVASWFKVNTSLLRYWENEFDILQPRKTRKGDRLFRVEDIKNLQLIYLL | 0.26
61 | HMEITGKYKAKEDIKLKVIPLISSLDLQDIKQNTELEVKDTMNNWAYVTVQEKQGWVVLEKIEKVE | -0.631
62 | HMEITTLTGVLGAGRLDSALAAALPQYSRARIQALISDAALRINGQVVADAGSKKMSGQTFELNIPAPVP | -0.594
63 | HMEKDEYIFVDIDGAVFNPGVYKLIAGSRVIDAINLAGGLKEKAFTQNLNKARKLVDGEKIYIYLEGDEE | -0.552
64 | HMEKDRDKRIRKRVLTALKRNDKKMTDKAFALLTSRIRDESILDQEVLKLIGYVGDRTTIDSKDINIVVAE | -0.392
65 | HMEKEEELNSIRPDLDGNDIMEILGVPAGPKVGKAYNYLLNVRLDEGPLSRAEAISRLEAWWENQ | -0.168
66 | HMEKELVSDFASRISTARSSKGWNHAELGKRMAETVNVIKSAESGKPPTDSVVKKLERVLGITLMEV | -0.0517
67 | HMEKEYMKNVVGMEYRQARVLLGDMGLELAFQPVYETSDKYPTDVVVSTEPAADQPLTKGQTVILHIST | -0.332
68 | HMEKGNEEALEQAREAILAVQSGEKYVDLDPANAAIRRKQHALAQASDLVSQSYGKDPNRYVRIFR | 0.233
69 | HMEKINLLVENNDNYRLDKIIALNMEELSRTQIQEMIGQGLVLVNGKVEKASYKTKLNDQIEITIED | -0.0065
70 | HMEKKKVPEVAGQDEAAARNVMTNSGFVVDVEQKEDDNVPAGKVITTAPAGGVEVVEGTKIILYVSKGSN | -0.052
71 | HMEKKPYGEMHNVMLTDEELEKLRHDYPAHFAEYIQRLSLHIDAKGARYKSHYAVIRKWLIADGVKA | -2.36
72 | HMEKLIRIKRLIKQLNEYRDSYYNEARPVVSDAAYDKLFDELSELEKETGVVYANSPTQTVG | 0.0942
73 | HMEKPTEITLSNRVSVQELAEKMYVSETDIIRTLFLDGRIININQVLDIDTAIRVGEQLGIKIKII | -2.14
74 | HMEKPTRNKLVEIIIQNKNVTTEQMANLLNISRRAVAKHIKKLQEEGIIRRIGPDFGGHWEIVK | -0.294
75 | HMEKPYTPPANLNEIQSYEELSKAVQYYNKVKDAATTDADRLKAQQSIDTLEDMRKAWDAASST | 0.328
76 | HMEKSLSAQVYEKIKAGIISLKYPPGSVLKERELSESLGVSRTPVREAIQRLSQESWLVPGEGKRMQVRP | -0.0542
77 | HMEKTLAERVNDILAEIKMTKQELAMQLNISRSAVSQYLNGKYSSNPEAIEARLRDFVSSYDRG | -0.292
